Target: T1, BSA (Bos taurus, UniProt P02769)
T1 construct: purchased Jackson ImmunoResearch (West Grove, Pa.)
Assay: Circular dichroism of BSA grafted to PxSPCP NPs
Assay type: physicochemical, bovine
Details: PBS, 20° C.
Procedure: Bioactivity and Cell Compatibility of BMP2-PxSPCP NPs: Circular dichroism (CD) was used to determine the effect of grafting on secondary structure of the model BSA protein. CD spectra of free or grafted BSA in PBS were collected with a spectropolarimeter (JASCO J815, Essex, UK) at 20° C. with a cuvette of 0.1 cm path length. For evaluation of cell compatibility, hMSCs (1×10^6 cells/mL) and PxSPCP NPs (10 mg) were encapsulated in LPELA hydrogel and cultured in basal medium. At each time point, the hydrogels were stained with cAM/EthD live/dead assay (1 μg/mL) and the stained cells were imaged with an inverted fluorescent microscope (Nikon Eclipse Ti-ε, Nikon, Melville, N.Y.). To quantify cell viability, the medium was replaced with fresh medium containing 10% MTS and incubated for 6 hours at 37° C. and the sample absorbance was measured with a microplate reader (Molecular Devices, San Jose, Calif.) at a wavelength of 490 nm.

T1 sequence (P02769 25-607): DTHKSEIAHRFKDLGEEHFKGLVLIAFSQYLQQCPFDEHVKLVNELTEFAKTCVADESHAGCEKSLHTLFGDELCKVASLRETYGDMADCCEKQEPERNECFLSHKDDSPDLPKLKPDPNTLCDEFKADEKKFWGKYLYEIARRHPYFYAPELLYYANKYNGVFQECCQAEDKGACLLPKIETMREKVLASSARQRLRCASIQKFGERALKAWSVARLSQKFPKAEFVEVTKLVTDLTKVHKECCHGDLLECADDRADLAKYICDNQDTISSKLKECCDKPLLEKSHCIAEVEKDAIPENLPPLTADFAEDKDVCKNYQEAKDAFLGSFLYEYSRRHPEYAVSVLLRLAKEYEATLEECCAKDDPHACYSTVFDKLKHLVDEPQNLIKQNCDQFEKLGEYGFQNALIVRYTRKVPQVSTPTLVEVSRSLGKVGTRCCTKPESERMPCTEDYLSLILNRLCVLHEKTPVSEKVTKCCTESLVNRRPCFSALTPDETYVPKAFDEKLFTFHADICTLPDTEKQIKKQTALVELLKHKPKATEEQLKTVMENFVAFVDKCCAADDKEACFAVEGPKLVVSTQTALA

Row | Substance | CD spectrum of grafted BSA compared with free BSA
1 | BSA-P0.5SPCP NPs: BSA grafted to P0.5SPCP NPs | close to that of free BSA
2 | BSA-P5SPCP: BSA grafted to P5SPCP NPs | substantially different
3 | BSA-P2SPCP NPs: BSA grafted to P2SPCP NPs | slight change
4 | BSA-P7.5SPCP: BSA grafted to P7.5SPCP NPs | substantially different

Source: patent US20230355541A1, “ENZYMATICALLY CLEAVABLE SELF-ASSEMBLED NANOPARTICLES FOR MORPHOGEN DELIVERY” (UNIVERSITY OF SOUTH CAROLINA, priority 2019, published 2023)
